Results as given in the RNAGym collection of RNA variant scans (doi:10.7554/elife.80360).

B1: HDV Ribozyme (parent)
chain: GGCCGGCAUGGUCCCAGCCUCCUCGCUGGCGCCGGCUGGGCAACAUUCCGAGGGGACCGUCCCCUCGGUAAUGGCGAAUGGGACCCA

Variants of: B1
Assay: self-cleavage, relative activity (ratio to wild type); higher = more cleavage; co-transcriptional

Row | Variant | self-cleavage
1 | U79C G80U | 0.267
2 | U79C G80A | 0.129
3 | G74U U79G | 0.199
4 | G73U A77U | 0.0811
5 | G74A G76U | 0.727
6 | G74U A78U | 0.332
7 | G73U C75A | 0.107
8 | G73U C75U | 0.111
9 | G74A C86G | 0.375
10 | G74A C86A | 0.537
11 | A78U A83C | 0.324
12 | G76C G81C | 0.0875
13 | G76C A87G | 1.08
14 | G76C A87U | 1.1
15 | G73C G81A | 0.0817
16 | C75A A78G | 0.0898
17 | C75A A78C | 0.104
18 | C75A C84A | 0.269
19 | C75A C84U | 0.0545
20 | C75A C86U | 0.0615
21 | C75G G81U | 0.133
22 | C75G G81A | 0.0332
23 | A78C A83U | 0.166
24 | A78U C84G | 0.0396

Row | Variant | self-cleavage
25 | A78U C84A | 0.185
26 | G73U A83G | 0.219
27 | G73U A87U | 0.374
28 | G73U A87C | 0.385
29 | A78U G82C | 0.0302
30 | A78U G82U | 0.197
31 | G74U C85U | 0.614
32 | A77G G82C | 0.389
33 | G74A A78U | 0.173
34 | U79G G80C | 0.277
35 | G74C C84U | 0.196
36 | G74U G82A | 0.217
37 | A77U C85U | 0.96
38 | A77U C85G | 0.299
39 | G76A U79G | 0.672
40 | U79G C86A | 0.675
41 | G76U | 1.03
42 | G76A | 1.04
43 | G76C | 1
44 | G73U G74U | 0.22
45 | G73U G74C | 0.126
46 | C75G U79C | 0.113
47 | A78G G80C | 0.329
48 | A77U G81C | 0.157

Row | Variant | self-cleavage
49 | G74C A78C | 0.185
50 | G74C A78U | 0.332
51 | G76A G81C | 0.302
52 | G73U C85U | 0.458
53 | A78U U79A | 0.095
54 | C75U C84U | 0.0767
55 | A78G C85U | 0.748
56 | A77C A78C | 0.208
57 | G80A A83C | 0.135
58 | U79A A83C | 0.151
59 | A77U C86U | 0.729
60 | A77U C86A | 0.831
61 | G76A A87C | 1.03
62 | C75A A77G | 0.0875
63 | A78C G82C | 0.0831
64 | C75A U79A | 0.256
65 | C75A U79G | 0.208
66 | G74A A87G | 0.339
67 | A77C A87U | 0.466
68 | G80A G82U | 0.0511
69 | A77C C84U | 0.326
70 | A77C C85G | 0.492
71 | A77C C85A | 0.506
72 | C75U G81C | 0.16

Row | Variant | self-cleavage
73 | A78C C86G | 0.14
74 | A78C C86A | 0.192
75 | A78C C86U | 0.225
76 | A77U A78G | 0.443
77 | G73C G76A | 0.604
78 | G74U C86A | 0.389
79 | G74U C86U | 0.648
80 | U79G C84U | 0.554
81 | C75G G82U | 0.215
82 | C75U G80C | 0.142
83 | C75U G80U | 0.178
84 | A78U C85G | 0.326
85 | G76U C86U | 0.852
86 | G80A C85A | 0.408
87 | A77G G80C | 0.0437
88 | C75G C86G | 0
89 | C75G C86U | 0.156
90 | G74C A77G | 0.145
91 | C75U G82C | 0.108
92 | G76U A77G | 0.978
93 | A78C C85G | 0.0852
94 | G74A U79A | 0.0852
95 | G74U A87U | 0.506
96 | U79A A87G | 0.752

Row | Variant | self-cleavage
97 | G76U A78G | 1.34
98 | A77G C85A | 0.851
99 | A78G U79A | 0.317
100 | G76C A77G | 1
101 | A78G G82A | 0.365
102 | A77U | 0.623
103 | A77C | 0.377
104 | A77G | 0.887
105 | A77C C86A | 0.407
106 | G73C G80A | 0.284
107 | U79A C85G | 0.997
108 | G76U A83G | 0.787
109 | G76U A83C | 0.755
110 | G76U A83U | 0.481
111 | A77C G82A | 0.358
112 | G74U C75A | 0.228
113 | C75A G81U | 0.155
114 | C75A G81C | 0.157
115 | G76A C86A | 0.855
116 | G76C C85A | 0.873
117 | G76C C85G | 1.23
118 | G76C C85U | 1.14
119 | C75G G80C | 0.0709
120 | C75U A78C | 0

Row | Variant | self-cleavage
121 | A77U A87C | 0.655
122 | U79C C86A | 0.513
123 | A77G C84G | 0.573
124 | A77G C84A | 0.464
125 | G73U U79C | 0.169
126 | G73U U79A | 0.131
127 | U79A C86U | 1.02
128 | U79A C86G | 0.81
129 | A78G G81A | 0.115
130 | A77C G81C | 0.0504
131 | G74C C85G | 0.0791
132 | G74A C85G | 0.601
133 | G74A C85U | 0.462
134 | C75A A87C | 0.202
135 | A78C G80A | 0.174
136 | A78C G80U | 0.174
137 | A78C G80C | 0.0514
138 | U79A G81U | 0.295
139 | U79A G81C | 0.0504
140 | G74U A83U | 0.259
141 | G74A G82U | 0.125
142 | U79G A83C | 0.204
143 | A77G C86A | 1.15
144 | A77G C86G | 0.886

Row | Variant | self-cleavage
145 | G74C G82C | 0.0475
146 | G74C G82A | 0.166
147 | C75U U79C | 0.172
148 | G74A A77U | 0.267
149 | G74C G80A | 0.227
150 | G74U G80U | 0.0956
151 | A77U A83G | 0.261
152 | A77U A83C | 0.231
153 | G74U A77C | 0.123
154 | A77U G82C | 0.208
155 | A78U G81A | 0.182
156 | G76C C84G | 0.618
157 | G74C C75G | 0.0386
158 | G80C A83C | 0.128
159 | C75U C86G | 0.145
160 | G80A C84A | 0.58
161 | G80A C84G | 0.161
162 | G76U A87G | 1.13
163 | G76U A87C | 1.17
164 | G76A A77G | 1.04
165 | G76A A77C | 0.657
166 | G76A A77U | 0.76
167 | G74U C84G | 0.126
